Experimental data as given in article PMC10397247.
Where two headings read alike, the source gives them in different places.

Experiments:
Assay in all cases: two-hybrid library CCmax;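 note: natural log of median RNA to DNA barcode read ratio; higher means stronger binding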
[1] = molecular target: T1, 4H3015-AA; conditions: mean of both orientations
T1 chain: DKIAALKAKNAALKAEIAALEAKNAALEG

[2] = molecular target: T2, 4H_APH; conditions: mean of both orientations
T2 chain: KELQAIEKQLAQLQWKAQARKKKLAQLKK

[3] = molecular target: T3, 4H2931-AA; conditions: mean of both orientations
T3 chain: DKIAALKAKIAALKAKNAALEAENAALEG

[4] = molecular target: T4, 4H56-AA; conditions: mean of both orientations
T4 chain: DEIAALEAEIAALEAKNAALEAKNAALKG

[5] = molecular target: T5, 4H2774-AA; conditions: mean of both orientations
T5 chain: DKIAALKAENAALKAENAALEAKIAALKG

[6] = molecular target: T6, 4H452-AA; conditions: mean of both orientations
T6 chain: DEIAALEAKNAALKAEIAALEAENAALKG

[7] = molecular target: T7, 4H347-AA; conditions: mean of both orientations
T7 chain: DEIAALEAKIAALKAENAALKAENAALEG

[8] = molecular target: T8, 4H3438-AA; conditions: mean of both orientations
T8 chain: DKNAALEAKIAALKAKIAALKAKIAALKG

[9] = molecular target: GCN2_T
[10] = molecular target: T9, 4H2343-AA
T9 chain: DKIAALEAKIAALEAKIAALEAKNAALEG

[11] = molecular target: T10, 4H3073-AA; conditions: mean of both orientations
T10 chain: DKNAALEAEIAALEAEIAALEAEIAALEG

[12] = molecular target: T11, 4H406-AA; conditions: mean of both orientations
T11 chain: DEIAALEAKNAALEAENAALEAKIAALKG

[13] = molecular target: T12, 4H2466-AA; conditions: mean of both orientations
T12 chain: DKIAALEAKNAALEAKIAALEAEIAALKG

[14] = molecular target: T13, 4H2732-AA; conditions: mean of both orientations
T13 chain: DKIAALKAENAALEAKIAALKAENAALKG

[15] = molecular target: T14, 4H2592-AA; conditions: mean of both orientations
T14 chain: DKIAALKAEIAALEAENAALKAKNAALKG

[16] = molecular target: T15, 4H_BCR; conditions: mean of both orientations
T15 chain: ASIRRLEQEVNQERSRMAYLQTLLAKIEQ

[17] = molecular target: 4H_GCN4; conditions: mean of both orientations
[18] = molecular target: T16, 4H3001-AA; conditions: mean of both orientations
T16 chain: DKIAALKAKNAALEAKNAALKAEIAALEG

[19] = molecular target: T17, 4H249-AA; conditions: mean of both orientations
T17 chain: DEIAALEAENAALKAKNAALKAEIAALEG

[20] = molecular target: T18, 4H891-AA; conditions: mean of both orientations
T18 chain: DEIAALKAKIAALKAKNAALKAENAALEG

[21] = molecular target: T19, 4H2330-AA
T19 chain: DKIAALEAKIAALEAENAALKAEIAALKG

[22] = molecular target: T20, 4H2649-AA; conditions: mean of both orientations
T20 chain: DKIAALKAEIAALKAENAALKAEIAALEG

[23] = molecular target: T21, 4H629-AA; conditions: mean of both orientations
T21 chain: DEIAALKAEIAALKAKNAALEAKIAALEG

[24] = molecular target: T22, 4H3753-AA; conditions: mean of both orientations
T22 chain: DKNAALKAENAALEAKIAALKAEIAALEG

[25] = molecular target: T23, 4H3590-AA; conditions: mean of both orientations
T23 chain: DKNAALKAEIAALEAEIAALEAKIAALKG

[26] = molecular target: T24, 4H2473-AA; conditions: mean of both orientations
T24 chain: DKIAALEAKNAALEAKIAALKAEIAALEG

[27] = molecular target: T25, 4H3395-AA; conditions: mean of both orientations
T25 chain: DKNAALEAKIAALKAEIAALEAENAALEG

[28] = molecular target: T26, 4H485-AA; conditions: mean of both orientations
T26 chain: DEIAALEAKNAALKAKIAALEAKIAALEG

[29] = molecular target: T27, 4H3410-AA; conditions: mean of both orientations
T27 chain: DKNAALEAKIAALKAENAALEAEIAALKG

[30] = molecular target: T28, 4H2438-AA; conditions: mean of both orientations
T28 chain: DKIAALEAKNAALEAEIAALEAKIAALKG

[31] = molecular target: T29, 4H3697-AA; conditions: mean of both orientations
T29 chain: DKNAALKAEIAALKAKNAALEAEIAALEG

[32] = molecular target: T30, 4H2698-AA; conditions: mean of both orientations
T30 chain: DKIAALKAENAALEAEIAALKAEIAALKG

[33] = molecular target: T31, 4H536-AA; conditions: mean of both orientations
T31 chain: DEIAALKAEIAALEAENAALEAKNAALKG

[34] = molecular target: T32, 4H570-AA; conditions: mean of both orientations
T32 chain: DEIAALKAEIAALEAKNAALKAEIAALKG

[35] = molecular target: T33, 4H2865-AA; conditions: mean of both orientations
T33 chain: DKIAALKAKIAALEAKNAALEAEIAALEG

[36] = molecular target: T34, 4H745-AA; conditions: mean of both orientations
T34 chain: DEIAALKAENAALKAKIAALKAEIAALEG

[37] = molecular target: T35, 4H310-AA; conditions: mean of both orientations
T35 chain: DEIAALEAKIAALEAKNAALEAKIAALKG

[38] = molecular target: T36, 4H3120-AA; conditions: mean of both orientations
T36 chain: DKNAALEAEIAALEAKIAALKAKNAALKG

[39] = molecular target: T37, 4H710-AA; conditions: mean of both orientations
T37 chain: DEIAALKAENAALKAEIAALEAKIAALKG

[40] = molecular target: T38, 4H3130-AA; conditions: mean of both orientations
T38 chain: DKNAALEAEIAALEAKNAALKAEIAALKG

[41] = molecular target: T39, 4H850-AA; conditions: mean of both orientations
T39 chain: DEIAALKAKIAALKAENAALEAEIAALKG

[42] = molecular target: T40, 4H3016-AA; conditions: mean of both orientations
T40 chain: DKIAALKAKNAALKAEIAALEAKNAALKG

[43] = molecular target: T41, 4H2725-AA; conditions: mean of both orientations
T41 chain: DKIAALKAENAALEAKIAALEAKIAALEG

[44] = molecular target: T42, 4H3865-AA; conditions: mean of both orientations
T42 chain: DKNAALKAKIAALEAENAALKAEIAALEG

[45] = molecular target: T43, 4H797-AA; conditions: mean of both orientations
T43 chain: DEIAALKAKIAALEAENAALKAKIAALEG

[46] = molecular target: T44, 4H2389-AA; conditions: mean of both orientations
T44 chain: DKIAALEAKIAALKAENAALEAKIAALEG

[47] = molecular target: T45, 4H3381-AA; conditions: mean of both orientations
T45 chain: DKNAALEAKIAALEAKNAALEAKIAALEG

[48] = molecular target: T46, 4H3009-AA; conditions: mean of both orientations
T46 chain: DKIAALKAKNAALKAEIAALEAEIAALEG

[49] = molecular target: T47, 4H909-AA; conditions: mean of both orientations
T47 chain: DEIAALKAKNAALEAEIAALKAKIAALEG

[50] = molecular target: T48, 4H930-AA; conditions: mean of both orientations
T48 chain: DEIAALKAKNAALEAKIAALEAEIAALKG

[51] = molecular target: T49, 4H94-AA; conditions: mean of both orientations
T49 chain: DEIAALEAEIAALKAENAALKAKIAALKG

[52] = molecular target: T50, 4H458-AA; conditions: mean of both orientations
T50 chain: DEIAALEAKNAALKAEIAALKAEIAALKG

[53] = molecular target: T51, 4H3165-AA; conditions: mean of both orientations
T51 chain: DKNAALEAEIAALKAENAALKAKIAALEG

4H_GCN4, sequence (chain, as listed by the source): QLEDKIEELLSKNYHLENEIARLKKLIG

B1: 4H2343-AA (peptide)
chain: DKIAALEAKIAALEAKIAALEAKNAALEG
[1]
  interaction score: -1.83
[2]
  interaction score: -1.88
[3]
  interaction score: -1.61
[4]
  interaction score: -1.45
[5]
  interaction score: -1.54
[6]
  interaction score: -1.86
[7]
  interaction score: -1.77
[8]
  interaction score: 0.393
[9]
  interaction score: -2.25
[10]
  interaction score: 1.95
[11]
  interaction score: 0.404
[12]
  interaction score: -1.85
[13]
  interaction score: -1.39
[14]
  interaction score: -1.84
[15]
  interaction score: -1.2
[16]
  interaction score: -2.04
[17]
  interaction score: -1.32
[18]
  interaction score: -1.8
[19]
  interaction score: -1.75

B2: 4H2330-AA (peptide)
chain: DKIAALEAKIAALEAENAALKAEIAALKG
[20]
  interaction score: -1.54
[1]
  interaction score: -1.54
[21]
  interaction score: 2.14
[22]
  interaction score: 0.31
[23]
  interaction score: -1.21
[2]
  interaction score: -2.24
[24]
  interaction score: -1.31
[25]
  interaction score: -1.06
[3]
  interaction score: -1.63
[26]
  interaction score: -0.502
[4]
  interaction score: -1.47
[27]
  interaction score: -1.56
[28]
  interaction score: -1.35
[29]
  interaction score: 0.287
[30]
  interaction score: -0.853
[5]
  interaction score: -1.55
[6]
  interaction score: -1.85
[31]
  interaction score: -1.56
[7]
  interaction score: -0.642
[32]
  interaction score: -1.05
[33]
  interaction score: -1.33
[34]
  interaction score: 0.717
[8]
  interaction score: -1.59
[35]
  interaction score: -0.443
[9]; mean of both orientations
  interaction score: -1.77
[36]
  interaction score: -1.42
[10]; mean of both orientations
  interaction score: -1.3
[37]
  interaction score: -0.633
[38]
  interaction score: -1.29
[11]
  interaction score: -1.5
[12]
  interaction score: -0.544
[39]
  interaction score: -1.49
[40]
  interaction score: 0.306
[41]
  interaction score: 1.43
[42]
  interaction score: -1.44
[43]
  interaction score: -1.57
[13]
  interaction score: -1.14
[44]
  interaction score: 0.945
[14]
  interaction score: -1.45
[15]
  interaction score: -0.144
[45]
  interaction score: -0.788
[16]
  interaction score: -2.26
[46]
  interaction score: -0.00244
[17]
  interaction score: -1.88
[47]
  interaction score: -1.67
[48]
  interaction score: -1.35
[49]
  interaction score: -1.17
[50]
  interaction score: -1.22
[18]
  interaction score: -1.21
[51]
  interaction score: 0.579
[52]
  interaction score: -1.07
[19]
  interaction score: -1.48
[53]
  interaction score: -1.39
